Reference: article doi:10.1101/2022.12.04.519021
“And” between values parts separate entries of the source, which are not always exact repeats. Identical values can stand only once. Like-named read-outs stand apart in the source and are kept apart here.

Columns and labels:
[1] = biological target: C-terminally amidated amyloid-beta fragment Aβ1-24-NH2 (human); test: SDS-PAGE and immunoblot
[2] = biological target: C-terminally amidated amyloid-beta fragment Aβ1-24-NH2 (human); test: high-resolution LC-MS
[3] = biological target: C-terminally truncated amyloid-beta fragment Aβ1-23 (human); test: SDS-PAGE and immunoblot
[4] = biological target: C-terminally truncated amyloid-beta fragment Aβ1-25 (human); test: SDS-PAGE and immunoblot
[5] = biological target: C-terminally truncated amyloid-beta fragment Aβ1-25 (human); test: SDS-PAGE and immunoblot; remark: listed apart in the source

Q: How did the stoichiometry N [1] turn out when “C-terminally amidated amyloid-beta fragment Aβ1-24-NH2 (peptide)” was run?
A: 2 and 3

Q: And the stoichiometry N [2]?
A: 3 and 2 and 5

Q: For “C-terminally truncated amyloid-beta fragment Aβ1-23 (peptide)”, which stoichiometry N [3] is on record?
A: 3 and 2

Q: Which stoichiometry N [4] does the source give for “C-terminally truncated amyloid-beta fragment Aβ1-25 (peptide)” here?
A: 3

Q: And the stoichiometry N [5]?
A: 2
